{"source": "paper PMC12412786", "about": "(Nucleic Acids Research, 2025)", "proteins": {"B1": {"name": "murine PARP2 (poly(ADP-ribose) polymerase 2) (enzyme)", "chain": "MAPRRQRSGSGRRVLNEAKKVDNGNKATEDDSPPGKKMRTCQRKGPMAGGKDADRTKDNRDSVKTLLLKGKAPVDPECAAKLGKAHVYCEGDDVYDVMLNQTNLQFNNNKYYLIQLLEDDAQRNFSVWMRWGRVGKTGQHSLVTCSGDLNKAKEIFQKKFLDKTKNNWEDRENFEKVPGKYDMLQMDYAASTQDESKTKEEETLKPESQLDLRVQELLKLICNVQTMEEMMIEMKYDTKRAPLGKLTVAQIKAGYQSLKKIEDCIRAGQHGRALVEACNEFYTRIPHDFGLSIPPVIRTEKELSDKVKLLEALGDIEIALKLVKSERQGLEHPLDQHYRNLHCALRPLDHESNEFKVISQYLQSTHAPTHKDYTMTLLDVFEVEKEGEKEAFREDLPNRMLLWHGSRLSNWVGILSHGLRVAPPEAPITGYMFGKGIYFADMSSKSANYCFASRLKNTGLLLLSEVALGQCNELLEANPKAQGLLRGKHSTKGMGKMAPSPAHFITLNGSTVPLGPASDTGILNPEGYTLNYNEFIVYSPNQVRMRYLLKIQFNFLQLW"}}, "target": "the molecule itself", "assay": "mass photometry", "note": "Several values for one entry are separate records, joined by “and”; a condition that tells them apart may be missing. Equal values may be shown once.", "data": [{"protein": "B1", "values": [{"measurement": "stoichiometry N", "value": "2 and 3"}]}]}
